The target of test [1] is HLA-A*02:01. Kind of test: IEDB peptide-MHC binding, purified MHC/direct/fluorescence; filed as Kd, often an IC50 or EC50 that approximates it; ≥ and ≤ were set here for values at or beyond the usual limits of such assays.
The target of another test is HLA-B*07:02. The test is described as above.
In the next test the target is HLA-B*15:01. The description is as above.
The target in the next test is HLA-B*35:01. Described as above.
Another test concerns the target HLA-B*08:01. The description is as above.
The next test has as its target HLA-A*11:01. Described as above.
The target in another test is HLA-A*24:02. The description is as above. The settings on record: source organism: Influenza A virus (A/tiger/Thailand/CU-T4/04(H5N1)).
The target of another test is HLA-B*58:01. The description is as above.
The next test deals with HLA-A*03:01. Described as above.
A further test has as its target HLA-B*08:02. The description is as above. The settings on record: source organism: Influenza A virus(A/swine/Shandong/fZC/2003(H9N2)).
The next test addresses HLA-A*01:01. The description is as above.
The target in test [2] is HLA-A*69:01. The test is described as above.
The target in a further test is HLA-B*40:01. The description is as above.
Another test has as its target HLA-B*27:05. The test is described as above.
In the next test the target is HLA-B*46:01. Kind of test: IEDB peptide-MHC binding, purified MHC/competitive/fluorescence; filed as Kd, often an IC50 or EC50 that approximates it; ≥ and ≤ were set here for values at or beyond the usual limits of such assays.
In the next test the target is HLA-A*68:02. The test is described as follows: IEDB peptide-MHC binding, purified MHC/direct/fluorescence; filed as Kd, often an IC50 or EC50 that approximates it; ≥ and ≤ were set here for values at or beyond the usual limits of such assays.
The target in test [3] is HLA-A*24:03. The description is as above. The settings on record: source organism: Choclo virus.
Test [4] addresses HLA-A*02:11. The test is described as above.
For a further test, the target named is HLA-A*23:01. Described as above.
The target in another test is HLA-A*02:16. The test is described as above.
The target in a further test is HLA-A*02:12. The description is as above.
Another test has as its target HLA-A*02:03. The description is as above.
Another test addresses HLA-A*02:19. The description is as above.
In test [5] the target is HLA-A*02:01. The test is described as follows: IEDB peptide-MHC binding, purified MHC/competitive/fluorescence; filed as Kd, often an IC50 or EC50 that approximates it; ≥ and ≤ were set here for values at or beyond the usual limits of such assays.
The next test concerns the target HLA-B*39:01. The description is as above.
A further test deals with HLA-B*18:01. The description is as above.
Another test addresses HLA-B*27:03. The description is as above.
Another test has as its target HLA-B*57:01. The test is described as above.
For test [6], the target named is HLA-A*69:01. The description is as above.
The target of test [7] is HLA-A*26:01. The description is as above.
In a further test the target is HLA-B*51:01. The description is as above.
A further test has as its target HLA-A*29:02. Kind of test: IEDB peptide-MHC binding, purified MHC/direct/fluorescence; filed as Kd, often an IC50 or EC50 that approximates it; ≥ and ≤ were set here for values at or beyond the usual limits of such assays. The settings on record: source organism: Convict Creek 107 virus.
For test [8], the target named is HLA-A*24:03. The test is described as follows: IEDB peptide-MHC binding, purified MHC/competitive/fluorescence; filed as Kd, often an IC50 or EC50 that approximates it; ≥ and ≤ were set here for values at or beyond the usual limits of such assays. The settings on record: source organism: Orthohantavirus sinnombreense.
Another test has as its target HLA-B*15:17. Described as above. The settings on record: source organism: Orthohantavirus sinnombreense.
The target of test [9] is HLA-A*02:11. The description is as above. The settings on record: source organism: Bradyrhizobium diazoefficiens.
The target of another test is HLA-A*30:01. The test is described as follows: IEDB peptide-MHC binding, purified MHC/direct/fluorescence; filed as Kd, often an IC50 or EC50 that approximates it; ≥ and ≤ were set here for values at or beyond the usual limits of such assays. The conditions noted are these: source organism: Yersinia enterocolitica.
The target in the next test is HLA-B*44:02. Described as above. The conditions noted are these: source organism: Yersinia enterocolitica.
Another test addresses HLA-A*31:01. The description is as above. The settings on record: source organism: Yersinia enterocolitica.
Test [10] deals with HLA-A*26:01. Described as above. The conditions noted are these: source organism: Yersinia enterocolitica.
Another test has as its target HLA-C*14:02. The test is described as above. The settings on record: source organism: Yersinia enterocolitica.
The mark [11] stands for this setting: source organism: Influenza A virus (A/tiger/Thailand/CU-T4/04(H5N1)).
Where [12] appears, read: source organism: Influenza A virus (A/Puerto Rico/8/34/Mount Sinai(H1N1)).
Where [13] appears, read: source organism: Convict Creek 107 virus.
The mark [14] stands for this setting: source organism: Orthohantavirus sinnombreense.
The mark [15] stands for this setting: source organism: Yersinia enterocolitica.

As for FVRTLFQQM, the equilibrium dissociation constant (Kd) (as a rule, the free concentration of one partner at which half of the binding sites on the other are occupied at equilibrium, for simple one-to-one binding) with HLA-A*02:01 [1] (setting [11]) was at least 20 µM; in the test with HLA-B*07:02 (setting [12]), 0.5 µM; with HLA-B*15:01 (setting [12]) it was 5.96 µM; in the test with HLA-B*35:01 (source organism: Influenza A virus(A/swine/Shandong/fZC/2003(H9N2))) it was 0.297 µM; in the test with HLA-B*08:01 (setting [12]) it was 0.188 µM; with HLA-A*11:01 (setting [11]) it was at least 20 µM. Further, the dissociation constant (Kd) in the test with HLA-A*24:02, in the test with HLA-B*58:01 (setting [11]), with HLA-A*03:01 (setting [11]), with HLA-B*08:02, in the test with HLA-A*01:01 (setting [11]) and with HLA-A*69:01 [2] (setting [11]) was at least 20 µM in each case. For the same sequence, the dissociation constant Kd with HLA-B*40:01 (setting [11]), with HLA-B*27:05 (setting [11]) and with HLA-B*46:01 (source organism: Influenza A virus H3N2) was at least 20 µM in each case.

With KACDLAMCY, the Kd with HLA-A*68:02 (source organism: Choclo virus) is at least 20 µM; in the test with HLA-A*24:03 [3] it was at least 20 µM; with HLA-A*01:01 (source organism: Pergamino virus) it was 3.28 µM; with HLA-A*02:11 [4] (source organism: Choclo virus) it was at least 20 µM; with HLA-A*23:01 (source organism: Choclo virus), at least 20 µM; with HLA-A*02:16 (source organism: Choclo virus) it was at least 20 µM. The Kd with HLA-A*02:12 (source organism: Choclo virus), with HLA-A*02:03 (source organism: Choclo virus), with HLA-A*02:19 (source organism: Choclo virus), with HLA-B*46:01 (source organism: Choclo virus), with HLA-A*02:01 [5] (source organism: Choclo virus) and in the test with HLA-B*39:01 (source organism: Choclo virus) was at least 20 µM in each case. Further, the Kd with HLA-B*18:01 (source organism: Choclo virus), with HLA-B*27:03 (source organism: Choclo virus), in the test with HLA-B*57:01 (source organism: Choclo virus), with HLA-A*69:01 [6] (source organism: Choclo virus), in the test with HLA-A*26:01 [7] (source organism: Choclo virus) and with HLA-B*51:01 (source organism: Choclo virus) was at least 20 µM throughout.

Consider LFPELECFF, for which the Kd in the test with HLA-A*68:02 (setting [13]), with HLA-A*29:02, with HLA-A*03:01 (setting [13]), in the test with HLA-A*02:11 [4] (setting [13]), with HLA-A*23:01 (setting [13]) and with HLA-A*02:16 (setting [13]) was at least 20 µM in each case. Further, the Kd with HLA-A*02:12 (setting [13]), with HLA-A*02:03 (setting [13]), with HLA-A*02:19 (setting [13]), in the test with HLA-B*46:01 (setting [14]), with HLA-A*02:01 [5] (setting [14]) and with HLA-B*39:01 (setting [14]) was at least 20 µM each time. Besides, the Kd with HLA-B*18:01 (setting [14]) is at least 20 µM; with HLA-A*24:03 [8] it was 0.0008 µM; in the test with HLA-B*27:03 (setting [14]) it was at least 20 µM; with HLA-B*57:01 (setting [14]) it was at least 20 µM; in the test with HLA-A*69:01 [6] (setting [14]) it was at least 20 µM; with HLA-A*26:01 [7] (setting [14]) it was at least 20 µM. For the same sequence, the dissociation constant Kd in the test with HLA-B*51:01 (setting [14]) and with HLA-B*15:17 was at least 20 µM throughout.

For VTPGPHAQI, the values for the Kd with HLA-A*02:01 [5] (source organism: Bradyrhizobium diazoefficiens) and with HLA-A*02:11 [9] were 1.05 µM and 0.0704 µM, respectively.

As for YIFRNTINM, the Kd was 0.222 µM with HLA-A*02:01 [1] (setting [15]); 1.79 µM with HLA-A*30:01; 7.86 µM with HLA-B*07:02 (setting [15]); 0.298 µM with HLA-B*15:01 (setting [15]); 0.0827 µM in the test with HLA-B*35:01 (setting [15]); at least 20 µM with HLA-B*08:01 (setting [15]). Besides, the Kd was 7.78 µM with HLA-A*11:01 (setting [15]); 0.508 µM in the test with HLA-B*58:01 (setting [15]); at least 20 µM with HLA-B*44:02; at least 20 µM with HLA-A*03:01 (setting [15]); at least 20 µM with HLA-A*31:01; at least 20 µM in the test with HLA-A*01:01 (setting [15]). In addition, the Kd in the test with HLA-A*69:01 [2] (setting [15]) was 0.2 µM; with HLA-A*26:01 [10], 0.729 µM; in the test with HLA-C*14:02, 0.12 µM; with HLA-B*40:01 (setting [15]), at least 20 µM; with HLA-B*27:05 (setting [15]), at least 20 µM.

The record behind these values is the Immune Epitope Database (IEDB).
